Patent US20260028391A1

Target: fusion glycoprotein of the RSV used in the neutralization assay of Example 1 (respiratory syncytial virus (strain not stated))
Assay: cell-based or functional assay

Binder | RSV Neutralization - IC50
MPK161-v1 (antibody, V domains shown) VH: EVQLVQSGVEAKKPGESLKISCRASGYSFVNFWIGWVRQVPGKGLEWMGFIYPFDSDTKYGPSFEGHVIISADKSTNTAYLEWRSLRASDSAMYYCARFTFGIALVAGDVTGGGQAFEVWGQGTLVSVSS VL: AIWMTQSPSTLSASVGDRVTVTCRASLSIGTWLAWYQHKPGKAPKFLIYKASSLESGVPSRFSGSGSGTEFTLTISSLQPDDFATYYCQQYDSYPFTFGGGTKVEIK | 2.8 ng/mL
MPK161-v2 (antibody, V domains shown) VH: EVQLVQSGVEAKKPGESLKISCRASGYSFVNFWIGWVRQVPGKGLEWMGFIYPFDSDTKYGPSFEGHVIISADKSTNTAYLEWRSLRASDSAMYYCARFTFGIALVAGDVTGGGQAFEVWGQGTLVSVSS VL: EIVMMQSPATLSVSPGDRATLSCRASQSVAGNLAWYQQRPGQAPRLLIYAASTRATGVPARFSGSGSETEFTLTISSLQSEDFAVYYCHHYSNWPQAFGQGTRLDIK | 1.1 ng/mL
MPK163 (antibody, V domains shown) VH: EVQLVQSGAEVKKPGESLKMSCKTSGYSFRSYWIAWVRQRPGKGLEWMGIIWPGDSDVRYGPSFQGQVTISADRSTNTAYLQWSSLKASDTAIYWCARQNYDFWSGHSLGTGADYYYGMDVWGQGTTVTVSS VL: SSELTQPPSASGTPGQRVTISCSGSSSNIGRNIVHWYQHVPGTAPKLLIYNNDERPSGVPDRFSGSKSGTSASLAISGLQSEDEADYYCTVWDDSLNGGVFGGGTKVTVL | 1.4 ng/mL
MPK173 (antibody, V domains shown) VH: QVQLVQSGAEVRKPGASVKVSCRASGYTFSNFGITWVRQAPGQGLEWMGWISAYNGNTKSAQKFQDRVTMTTDTTTSTAYMELRSLRSDDTAVYYCARDTPSSDGAALLDYWGQGTLVTVSS VL: DIVMTQTPLSLPVTLGQPASISCRSSQSLVYSDGNTYLSWFQQRPGQSPRRLIYKVSNRDSGVPDRFSGSGSGTYFTLKINRVEAEDVGVYYCMQSKYWLTFGQGTKVEIK | 10.2 ng/mL
MPK180 (antibody, V domains shown) VH: QVQLVQSGAEVKKPGESLRISCKASGYSFASYWIGWVRQKPGKGPEWMGIIFPNDSDTEYSPSFEGQVSISADKSTSTVHLQWGSLKASDTAVYYCGRMYYLGALETWGQGTMVTVSS VL: AIRMTQSPSSLSASVGDRVTIVCQASHDISNFLNWYQQRPGQAPKLLIYDASFLETGVPSRFSGSGSGTYFTLTISSLQPEDFATYYCQRYDNRFFTFGPGTKVDIK | 1.5 ng/mL
MPK176 (antibody, V domains shown) VH: QVQLVQSGAEVKKPGASVRVSCKASGYTLTAYGISWVRQAPGQGLEWMGWISPKHGNTHYAQRFQGRVTMTTDTSTSTAYMELRSLRPDDTAVYFCAREGVDIMAVPWYFDYWGQGTLVAVSS VL: SYELTQPPSVSVAPGQTARISCGGNNIGSKSVHWYQQKPGQAPVVVVYDDSDRPSGIPERFSGSNSGNTATLTISGVEAGDEADYFCQVWDSATDHWVFGGGTKLTVL | 4.2 ng/mL
MPK179-v4 (antibody, V domains shown) VH: QVQLVQSRAEVKKPGESLKISCRASGYSFINYWIGWVRQMPGKGLEWMGIIYPFDSDTKYSPSFEGHVTISADKSINTAYVQWSSLKASDTAIYYCARFTFGIALVAGDVGGEGHAFDIWGQGTLVTVSS VL: DIVMTQSPSSLSASVGDRVTITCRASQTISTYLNWYQQKPGKAPKLLIYAASRLQSGVPSRFSGSGSGTDFTLTISSLQPEDFATYFCQQSYNAPPFTFGPGTKVDIR | 6.6 ng/mL
MPK170 (antibody, V domains shown) VH: QVQLVQSGAEVKKPGESLKISCKGSGYSFINYWIGWVRQMPGKGLEWMGIIYPFDSDTKYSPSFQGHVTISADKSINTAYVQWSSLKASDTAIYYCARFTFGIAVSTDDVSGEGQAFDLWGQGTRVTVSS VL: EIVMMQSPATLSVSPGERATLSCRASQSVAGNLAWYQQRPGQAPRLLIYAGSARATGVPARFSGSGSETEFTLTISSLQSEDFAVYYCHHYSNWPQAFGQGTRLDIK | 1.1 ng/mL
MPK178 (antibody, V domains shown) VH: EVQLVQSGAEVKKPGESLKISCRASGYSFVNYWIGWVRQVPGKGLEWMGFIYPFDSDTQYSPSFQGHVTISADKSINTAYLQWSSLRASDTAIYYCARFTFGIALVAGDVTGGGQAFEVWGQGTLVSVSS VL: DIVMTQSPVTLSVSPGERATLSCRASQSVAGNLAWYQQRPGQAPRLLIYAASTRATGVPARFSGSGSETEFTLTISSLQSEDFAVYYCHHYSNWPQAFGQGTRLDIK | 1 ng/mL
MPK165 (antibody, V domains shown) VH: EVQLVQSGAEVKKPGESLKISCRASGYSFNNYWVGWVRQVPGKGLEWMGFIYPFDSDTKYSPSFEGHVTISADKSIDTAYLQWSSLRSSDTAIYYCARFTFGIALVAGDVTGGGQAFEVWGQGTLVTVSS VL: EIVMTQSPATLSVSPGERATLSCRASQSVAGKLAWYQQRPGQAPRLIIYAASTRAAGVPARFSGSGSETEFTLTISSLQSEDFAVYYCHHYSNWPQAFGQGTRLDIK | 1 ng/mL
MPK168 (antibody, V domains shown) VH: EVQLVQSGAEVKKPGESLKISCQVSGYSFVNYWIGWVRQVPGKGLEWMGLIYPFDSDTQYSPSFQGHVTISADTSITTAYLQWSSLQASDTATYYCARFTFGLALVTAGLTDDGQAFDFWGQGTVVTVSS VL: EIVMMQSPATLSVSPGERATLSCRATESVAGKLAWYQQRPGQTPRLLIYGASARATGVPARFSGSGSETEFTLTISSLQSEDFAVYYCQQYSTWPHAFGQGTRLDIK | 1.3 ng/mL
MPK175 (antibody, V domains shown) VH: QVQLVQSGAEVKKPGESLKISCQASGYSFINYWIGWVRQKPGKGLEWMGIIYPFDSETKYSPSFQGHVTISADRFTNTAYVQWTSLKASDTAIYYCARFTFGLAVVAGGLSDDGQAFDIWGQGTRVTVSS VL: EIVLTQSPATLSVSPGERATLSCRASQSVAANLAWYQQRPGQTPRLLIYGASTRATGVPARFSGSGSETEFTLTISSLQPEDFAVYYCHHYSDWPQAFGQGTRLDIK | 1.6 ng/mL
MPK171-v2 (antibody, V domains shown) VH: QVQLVQSGAEVKKPGESLKISCKGSGYSFINYWIGWVRQMPGKGLEWMGIIYPFDSDTKYSPSFQGHVTISADKSINTAYVQWSSLKASDTAMYYCARFTFGIAVVTDDVSGEGHAFDIWGQGTMVTVSS VL: QSVLTQSPATLSVSPGERATLSCRASQSVAGNLAWYQQRPGQAPRLLIYGASTRATGVPARFSGSGSETEFTLTISSLQSEDFAVYYCQQYSNWPQAFGQGTRLDIK | 1 ng/mL

Second part, the binder after the results:

RSV Neutralization - IC50 | Binder
9.1 ng/mL | MPK187 (antibody, V domains shown) VH: QVQLVQSGAEVKKPGASVKVSCKTSGYYFNDYFIHWVRHAPGQGLEWMGWVNPLSGATVYAQKFQGWVTLTRDTSINTAYMELTRLTSNDTAMYYCATGALFWTGPTYWGQGTPVTVSA VL: EIVLTQSPATLSLFPGERATLSCRTSQFVSNNLAWYQQRPGQAPRLLIYDASSRASGTPGRFSASGSGTDFTLTVSSLETEDFAIYYCQHRSNWPPGITFGPGTRVDIR
14.7 ng/mL | MPK197 (antibody, V domains shown) VH: QVQLVQSGAEVKKPGASVKVSCKTSGYYFNDYFIHWVRHAPGQGLEWMGWVNPLSGATVYAQKFQGWVTLTRDTSINTAYMELTRLTSNDTALYYCATGALFWTGPTYWGQGTPVTVSA VL: EIVMMQSPATLSLSPGERATLSCRASQSISNNLAWYQQKTGQAPRLLIYDASSRASGTPGRFSASGSGTDFTLTVSSLETEDFAIYYCQHRSNWPPGITFGPGTRVDVR
2.6 ng/mL | MPK194-v2 (antibody, V domains shown) VH: QVQLVESGGGVVQPGRSLRLSCVASGFTFSNYPLHWVRQAPGKGLQWVAVISYDGSENYYADSVKGRFTISRDNSKSTLYLQMNSLRPEDTAIYYCARSKVAGGSYYFDYWGQGTLVPVSS VL: SYELTQPPSVSVAPGQAARVSCGGNNIGSQYVQWYQQKPGQAPVLVIYDDDDRPSGIPERFSGSNSGSTATLTISRVEAGDEADYYCQVWDKSNHVVVFGGGTKLTVL
1 ng/mL | MPK188 (antibody, V domains shown) VH: EVQLVQSGAEVKKPGESLKISCQASGYSFINYWIGWVRQMPGKGLEWMGIIYPFDSDTNYSPSFQGLVTISADKSINTAYLQWRSLKASDTAMYYCARFTFGIALVAGDVNGEGHAFDIWGQGTVVTVSS VL: EIVMTQSPATLSVSPGESATLSCRASQGVAGNLAWYQQRPGQAPRLLIYGTSTRATGVPARFSGSGSETEFTLTISSLQSEDFAVYYCHHYSNWPQAFGQGTRLDIK
1.2 ng/mL | MPK198 (antibody, V domains shown) VH: EVQLVQSGAEVKKPGESLKISCKGSGYSFINYWIGWVRQMPGKGLEWMGIIYPFDSDTKYSPSFQGHVTISADKSINTAYVQWSSLKASDTAMYYCARFTFGIAVVTDDVSGEGQAFDIWGQGTMVTVSS VL: EIVMMQSPATLSVSPGERATLSCRASQSVAGNLAWYQQRPGQAPRLLIYGASTRATGVPARFSGSGSETEFTLTISSLQSEDFAVYYCQQYSNWPQAFGQGTRLDIK
1.2 ng/mL | MPK186 (antibody, V domains shown) VH: QVQLVQSGAEVKKPGESLKISCQGSGYSFINYWIGWVRQMPGKGLEWMGIIYPFDSETKYSPSFQGHVTISADKSINTAYVQWSSLKASDTAMYYCARFTFGIAVVTDDVYGEAQGFDIWGQGTMVTVSS VL: DIVMTQTPATLSVSPGERATLSCRASQSVDGNLAWYQQRPGQAPRLLIYGASTRATGVPARFSGSGSETEFTLTISSLQSEDFAVYYCQHYSNWPQAFGQGTRLDIK
1.2 ng/mL | MPK189 (antibody, V domains shown) VH: QVQLVQSGAEVKKPGESLKISCKGSGYSFINYWIGWVRQMPGKGLEWMGIIYPFDSDTKYSPSFQGHVTISADKSINTAYVQWSSLKASDTAMYYCARFTFGIAVVTDDVSDEGHAFDIWGQGTMVTVSS VL: EIVMMQSPATLSVSPGERATLSCRASQSVAGNLAWYQQRPGQAPRLLIYGASTRATGVPARFSGSGSETEFTLTISSLQSEDFAVYYCQQYSNWPQAFGQGTRLDIK
2 ng/mL | MPK203 (antibody, V domains shown) VH: EVQLVQSGPQVKKPGAAVKVSCKASGFTFTDTTVNWVRQTRGQRLEWMGWIAVGSGTTNYAQKFRDRVTISRDTSTDTAYMELGGLTHDDTAVYYCTTEASRTWFVQTSPFVGFDPWGQGTLVTVSS VL: EIVLTQSPGTLSLSPGERATLSCRASQSVSSSYFAWYQQKPGQTPRVLIYGASNRAPDIPDRFSGSGSGTDFILTISRLEPEDFAIYYCQHYGSSPTFGQGTKVEIK
